This assay concerns the target p75 (Homo sapiens (Human)) (UniProt P08138). In words: ELISA, format not described. Background: An ELISA detects its analyte on a solid surface through an enzyme-linked reagent.

Results on one substance are retold here after patent US20110110942A1.

What is called EC50 is the concentration giving half of the maximal effect. Low readings indicate higher potency in that assay, high ones lower potency in that assay.

UniProt P08138, sequence (P08138 29-250 limits assumed): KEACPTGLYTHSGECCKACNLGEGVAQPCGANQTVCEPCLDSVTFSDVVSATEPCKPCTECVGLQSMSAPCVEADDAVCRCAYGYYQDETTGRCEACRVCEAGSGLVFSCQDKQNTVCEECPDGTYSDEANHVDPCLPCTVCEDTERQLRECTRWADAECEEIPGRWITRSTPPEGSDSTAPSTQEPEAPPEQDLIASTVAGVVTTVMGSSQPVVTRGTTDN

The substance “Amyloid Precursor Protein (from UniProt P05067 18-286) (ligand)” registered an EC50 of 300 nM.
